In PMC9882641:
pKi: −log10 of the molar value.

Columns and labels:
Assay in all cases: enzyme inhibition assay (chromogenic substrate, fit to Morrison's tight binding equation); MMP-2ACT (0.6 nM), MMP-9CAT (3 nM) or MMP-14CAT (1 nM) incubated with 0-25 nM N-TIMP2 variant for 1 h at 37 C in 50 mM HEPES, 10 mM CaCl2, 0.05% Brij-35, 1 mM DTNB, pH 7.5; then 100 uM chromogenic substrate, absorbance at 412 nm; three independent experiments
[1] = target: human MMP-9 catalytic domain (MMP-9CAT) (human) (UniProt P14780)
[2] = target: activated MMP-2 (MMP-2ACT) (human) (UniProt P08253)
[3] = target: human MMP-14 catalytic domain (MMP-14CAT) (human) (UniProt P50281)

Row | Substance | pKi [1] | pKi [2] | pKi [3]
1 | N-TIMP2-S2DOPA (from UniProt P16035 27-153) (domain or fragment) | 9.21 | 8.50 | 7.84
2 | N-TIMP2-S2HqAla (from UniProt P16035 27-153) (domain or fragment) | 7.15 | 7.01 | 7.01
3 | N-TIMP2-A70HqAla (from UniProt P16035 27-153) (domain or fragment) | 8.71 | 7.78 | 7.56

Further substances by rising pKi [1], results first:

Row | pKi [1] | pKi [2] | pKi [3] | Substance
4 | 9.07 | 9.00 | 7.85 | N-TIMP2-L100DOPA (from UniProt P16035 27-153) (domain or fragment)
5 | 9.27 | 9.38 | 8.33 | N-TIMP2-Y36HqAla (from UniProt P16035 27-153) (domain or fragment)
6 | 9.33 | 9.34 | 7.67 | N-TIMP2-S69DOPA (from UniProt P16035 27-153) (domain or fragment)
7 | 9.34 | 9.11 | 7.97 | N-TIMP2-A70DOPA (from UniProt P16035 27-153) (domain or fragment)
8 | 9.35 | 9.22 | 7.94 | N-TIMP2-S69HqAla (from UniProt P16035 27-153) (domain or fragment)
